Measurements as given in WO2011014457A1 (dated 2011).

What was measured:
human MerFc = target: T1, human MerFc (human, UniProt Q12866 21-499, limits assumed); experiment: ELISA, Fc fusion captured on anti-human IgG Fc
T1 sequence (looked up): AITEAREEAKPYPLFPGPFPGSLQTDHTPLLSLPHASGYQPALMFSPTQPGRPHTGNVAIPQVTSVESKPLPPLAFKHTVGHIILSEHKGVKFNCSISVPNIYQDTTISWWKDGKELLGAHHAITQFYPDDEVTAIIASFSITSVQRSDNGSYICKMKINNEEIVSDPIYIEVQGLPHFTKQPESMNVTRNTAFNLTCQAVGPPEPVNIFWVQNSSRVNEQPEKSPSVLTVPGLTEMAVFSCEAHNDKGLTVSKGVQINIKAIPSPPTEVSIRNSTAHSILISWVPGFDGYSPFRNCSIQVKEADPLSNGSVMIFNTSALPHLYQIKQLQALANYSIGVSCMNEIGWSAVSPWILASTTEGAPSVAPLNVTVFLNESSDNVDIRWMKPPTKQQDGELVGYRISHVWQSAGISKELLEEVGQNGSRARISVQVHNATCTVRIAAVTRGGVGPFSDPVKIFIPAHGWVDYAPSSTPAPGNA

human Tyro-3Fc = target: T2, human Tyro-3Fc (human, UniProt Q06418 41-428, limits assumed); experiment: ELISA, Fc fusion captured on anti-human IgG Fc
T2 sequence (looked up): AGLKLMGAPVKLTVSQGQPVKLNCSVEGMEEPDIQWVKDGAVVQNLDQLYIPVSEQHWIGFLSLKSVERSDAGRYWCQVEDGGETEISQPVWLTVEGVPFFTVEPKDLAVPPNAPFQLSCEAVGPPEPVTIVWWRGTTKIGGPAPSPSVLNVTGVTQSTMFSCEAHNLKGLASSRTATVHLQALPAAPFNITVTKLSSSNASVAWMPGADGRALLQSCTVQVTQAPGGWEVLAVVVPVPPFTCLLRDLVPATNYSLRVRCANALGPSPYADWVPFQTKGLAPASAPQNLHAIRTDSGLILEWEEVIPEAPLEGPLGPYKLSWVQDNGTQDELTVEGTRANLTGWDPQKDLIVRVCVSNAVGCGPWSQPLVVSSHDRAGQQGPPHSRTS

human AxI ECD-His = target: T3, human AxI ECD-His (human, UniProt P30530 26-451); experiment: SPR (BIAcore-3000), IgG captured by anti-human IgG, human AxI ECD-His injected
T3 construct: extracellular domain; also called human AxI ECD-His protein; Hu AxI

[1] = target: T4, murine AxI ECD-Fc fusion protein (murine, UniProt Q00993 19-445); experiment: SPR (BIAcore-3000), murine AxI ECD-Fc captured by anti-human IgG, anti-Axl Fab fragment injected (per methods)
T4 construct: extracellular domain; also called murine AxIFc; mouse AxI.Fc
T4 sequence (Q00993 19-445): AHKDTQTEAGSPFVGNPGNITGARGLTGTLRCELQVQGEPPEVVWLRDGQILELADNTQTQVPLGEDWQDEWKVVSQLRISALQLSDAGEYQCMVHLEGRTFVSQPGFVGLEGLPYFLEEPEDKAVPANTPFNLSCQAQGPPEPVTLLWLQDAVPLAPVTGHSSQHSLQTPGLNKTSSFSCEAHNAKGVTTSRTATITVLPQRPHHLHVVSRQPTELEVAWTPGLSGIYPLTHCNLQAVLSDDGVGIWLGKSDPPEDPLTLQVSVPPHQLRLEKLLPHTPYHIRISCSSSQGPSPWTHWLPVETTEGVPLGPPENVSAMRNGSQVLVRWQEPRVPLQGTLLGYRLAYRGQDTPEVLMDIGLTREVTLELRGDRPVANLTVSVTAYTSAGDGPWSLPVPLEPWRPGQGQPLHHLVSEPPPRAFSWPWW

B1: YW327.6S2 (antibody, V domains shown)
VH: EVQLVESGGGLVQPGGSLRLSCAASGFSLSGSWIHWVRQAPGKGLEWVGWINPYRGYAYYADSVKGRFTISADTSKNTAYLQMNSLRAEDTAVYYCAREYSGWGGSSVGYAMDYWGQGTLV
VL: DIQMTQSPSSLSASVGDRVTITCRASQDVSTAVAWYQQKPGKAPKLLIYSASFLYSGVPSRFSGSGSGTDFTLTISSLQPEDFATYYCQQSYTTPPTFGQGTKVEIKR
notes: also called AxI mAb YW327.6S2
In the case of B1, the binding result (human MerFc) is reported as “no binding”, the binding result (human Tyro-3Fc) is reported as “no binding” and the Kd (human AxI ECD-His) is reported as ~1 nM.

B2: YW327.6S2 Fab fragment (Fab, V domains shown)
VH: EVQLVESGGGLVQPGGSLRLSCAASGFSLSGSWIHWVRQAPGKGLEWVGWINPYRGYAYYADSVKGRFTISADTSKNTAYLQMNSLRAEDTAVYYCAREYSGWGGSSVGYAMDYWGQGTLV
VL: DIQMTQSPSSLSASVGDRVTITCRASQDVSTAVAWYQQKPGKAPKLLIYSASFLYSGVPSRFSGSGSGTDFTLTISSLQPEDFATYYCQQSYTTPPTFGQGTKVEIKR
notes: also called anti-Axl Fab fragment
In the case of B2, the Kd [1] is reported as 0.545 nM.
